In patent US20200087363A1 (IMMATICS BIOTECHNOLOGIES, published 2020) one finds peptide exchange yield data, which are given here for 67 molecules.

Bounds are passed on as bounds.

In the experiment the target is T1, HLA-B*44:05 (human).
T1 construct: also called peptide-receptive MHC class I molecule
In words: UV peptide exchange, anti-b2m ELISA. Put shortly: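 Peptide-receptive HLA-B*44:05 monomers after UV-induced exchange were diluted 100-fold and captured on streptavidin-coated plates for 1 h at 37 °C. Bound complexes were detected with 2 µg/ml HRP-anti-β2m (1 h, 37 °C) and TMB, read at 450 nm. β2m signal reflects peptide-stabilized complex yield.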
SESSSAFQF: the peptide exchange yield is 50 to 75%.
With AELDSKILAL the figure was 50 to 75%; with TEDYSKQAL, 50 to 75%.
In turn, QEVAQVASAIL yielded a peptide exchange yield of over 75%.
The result for EEHVYESIIRW reads 50 to 75%; that for SEFGAPRW, 50 to 75%; that for EESFRCLPEW, over 75%.
As for QEISAHRTEF, the peptide exchange yield fell in the range of 50 to 75%.
With ALSPVPSHW the figure was 50 to 75%.
AEREQVIKL came in with a peptide exchange yield of over 75%.
The result for KEVDPASNTY reads 50 to 75%.
The molecule TEVHSSPAQRW returned a peptide exchange yield of 50 to 75%.
With KEFGLDSVEL the figure was 50 to 75%; with VEVGDRTDW, 50 to 75%.
The result for QEAKPRATW reads 50 to 75%; that for KEAINLLKNY, 50 to 75%; that for SESALQTVI, 50 to 75%.
The result for EEAGFPLAY reads 50 to 75%; that for AEGYLDLDGI, 20 to 50%; that for ALEEGGGYIF, 10 to 20%.
On to FETEQALRL, for which the peptide exchange yield lay in the range of 50 to 75%.
The result for SESPIRISV reads 50 to 75%.
With AEADLSYTWDF the figure was 50 to 75%; with SESKVFQLL, 50 to 75%; with AELVGPVIPQDW, 50 to 75%.
The result for VEMTGKHQL reads 20 to 50%; that for TEFHMQFSY, over 75%; that for QEVAQVASA, 20 to 50%.
RELEEEFYSL: the peptide exchange yield lay in the range of 50 to 75%.
Molecule MEVDPIGHVY returned a peptide exchange yield of 50 to 75%.
Molecule TEENGFWYL displayed a peptide exchange yield of over 75%.
QESVHVASY displayed a peptide exchange yield of over 75%.
The result for MEFQNTQSY reads 50 to 75%; that for YEHAFNSIVW, over 75%; that for QEVGEITNL, 50 to 75%.
SELSLLSLY registered a peptide exchange yield of 50 to 75%.
With REYEDGPLSL the figure was 50 to 75%.
KEDNPSGHTY displayed a peptide exchange yield of 50 to 75%.
With RENDFEPKF the figure was 50 to 75%; with EDNPSGHTY, 20 to 50%.
The result for AEQQQQQMY reads 50 to 75%; that for AERDLNVTI, 50 to 75%.
The molecule EEAQWVRKYF displayed a peptide exchange yield of 50 to 75%.
In turn, QESVHVASYYW registered a peptide exchange yield of over 75%.
With HEDPSGSLHL the figure was 50 to 75%.
The result for QELLDFTNW reads over 75%; that for EEYAGQITL, 50 to 75%; that for TELEPGLTY, 50 to 75%.
The result for RELARVVTL reads over 75%; that for AENIKKFLY, 50 to 75%; that for REIENGNSF, 50 to 75%.
For the molecule SEYVHSSF, the peptide exchange yield was 20 to 50%.
As for AEALGAAKKL, the peptide exchange yield was in the range of 20 to 50%.
The result for RETEDYSKQAL reads 20 to 50%; that for NEVDGEYRY, 50 to 75%; that for GEPRKLLTQDW, 50 to 75%.
The result for SELGLPKEV reads 20 to 50%; that for AEEGPSVPKIY, 50 to 75%.
In turn, DELMRKESQW showed a peptide exchange yield of 50 to 75%.
The result for EEINELNRMI reads 50 to 75%.
Molecule AEMLGSVVGNW showed a peptide exchange yield of 50 to 75%.
With SEYVHSSFSGF the figure was 50 to 75%.
The result for SEENTGKTYF reads 50 to 75%.
The result for AESLFREAL reads 50 to 75%; that for EESFDSKFY, 50 to 75%.
Molecule GETVVLKNM showed a peptide exchange yield of 50 to 75%.
Consider AEEKAAVTSL, for which the peptide exchange yield lay within 50 to 75%.
